This data set can be described thus: protein stability index of a GFP-peptide fusion (GPS, HEK-293T) (PSI 1-6); higher = more stable.
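Also: lentivirally expressed fusions sorted by FACS into six bins by GFP to DsRed ratio, PSI derived from sequencing read proportions per bin multiplied by bin number.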

Turning to AAPFRFVARPVRFPREHQFFEDGD, the protein stability index (parent: IOH11805_6, c terminus: a fixed tail appended) came out at 2.1.
With YSGAYGASVSDEELKRRVAEELAL [CHCHD3 WT], the protein stability index (parent: IOH11162_9, c terminus: a fixed tail appended) stood at 2.57.
As for NWKETLVFPPEVPISEKAKDLILR, the protein stability index (parent: IOH11742_57, c terminus: a fixed tail appended) was found to be 3.08.
On to RQLAYSTVGTPDYIAPEVFMQTGY, for which the protein stability index (parent: IOH11742_47, c terminus: a fixed tail appended) was 2.48.
In the case of YPEDSSWAAKAPGASSREEPPEEP [SPDEF WT], the protein stability index (parent: IOH12673_12, c terminus: a fixed tail appended) was determined as 4.25.
Consider YARYHQAFADRDQSERQRHESQQL, for which the protein stability index (parent: IOH11065_9, c terminus: a fixed tail appended) turned out to be 2.09.
Turning to YQNHKITQLKIENNPFAKGFRGSD, the protein stability index (parent: IOH11603_37, c terminus: a fixed tail appended) turned out to be 2.57.
Regarding RDIDLKNRRGGPPFAFVEFEDPRD, the protein stability index (parent: IOH11039_8, c terminus: a fixed tail appended) came out at 3.81.
With HYPFLGAMGDHSKKKPGTAMCVGC [ISL2 WT], the protein stability index (parent: IOH10979_2, c terminus: a fixed tail appended) turned out to be 2.74.
As to FLPGGDMMTLLMKKDTLTEEETQF, the protein stability index (parent: IOH11742_29, c terminus: a fixed tail appended) stood at 2.21.
For the protein LREKLLEAEQSLRNLEDIHMSLEK, the protein stability index (parent: IOH11065_64, c terminus: a fixed tail appended) stood at 2.56.
Turning to FPESETKECPFRVNKVCGAACSSK [SERPINB5 WT], the protein stability index (parent: IOH12329_30, c terminus: a fixed tail appended) amounted to 2.39.
On to LTEAEGWHFFCFQGEATRKLAGK, for which the protein stability index (parent: IOH12374_27, c terminus: native) is 2.13.
In the case of FSDSSMDHFQKFLPTVGGQLGTAG [MYOZ1 WT], under “parent: IOH11059_14, c terminus: a fixed tail appended”, the protein stability index was 2.43.
Consider ILREELQKQRLREILEQQQQERND [ZNF277 WT], for which the protein stability index (parent: IOH12086_23, c terminus: a fixed tail appended) came out at 4.26.
As for YSGGGYYLDLPGSRQGSAEALRAL, the protein stability index (parent: IOH11095_45, c terminus: a fixed tail appended) was 1.95.
Turning to RGVRRTASTPTPDDKLFQKLAKVY [CPN1 WT], the protein stability index (parent: IOH11355_40, c terminus: a fixed tail appended) was determined as 1.95.
KYMPHLCQDSSGEVSCQCQLHPPR [MGC27345 WT]: where the note is “parent: IOH12124_9, c terminus: a fixed tail appended”, the protein stability index turned out to be 2.
Regarding LYKEELEQTYHAKLENARLSSEMN [LMNB1 WT], the protein stability index (parent: IOH11078_44, c terminus: a fixed tail appended) came to 2.79.
As for FVESSGGGSSAVGQFVSLDGAGKT, the protein stability index (parent: IOH11305_8, c terminus: a fixed tail appended) was 2.44.
For the protein TKHKCRQLTKASLKPRGCSKPPWR, the protein stability index (parent: IOH11209_33, c terminus: a fixed tail appended) came to 2.75.
Regarding VFIFYYVVEEILELHIHRLRYLSS, the protein stability index (parent: IOH11095_61, c terminus: a fixed tail appended) turned out to be 2.92.
On to TNIRLPNVPSSSLPAQPNRKPGMS, for which the protein stability index (parent: IOH12461_31, c terminus: a fixed tail appended) turned out to be 4.51.
Turning to FDALDDYEHHYHTLHGNVCSFCKR, the protein stability index (parent: IOH11805_16, c terminus: a fixed tail appended) was found to be 3.55.
On to SGPEAARAGGWVSGEEFYMLTRRV, for which the protein stability index (parent: IOH11095_116, c terminus: a fixed tail appended) came out at 2.25.
In the case of RVRPLARVTSLANLISPVRNGAVR, the protein stability index (parent: IOH11256_7, c terminus: a fixed tail appended) was determined as 3.05.
On to SSKSRAAPSPQEALVRLRETEEML, for which, for the setting “parent: IOH12461_3, c terminus: a fixed tail appended”, the protein stability index came to 1.94.
With FCIDSENRIGNSGVEEIKGHPFFE, the protein stability index (parent: IOH11742_61, c terminus: a fixed tail appended) is 2.18.
With IKRTIRVLDVNNQSFREQEEPSNK, the protein stability index (parent: IOH11256_3, c terminus: a fixed tail appended) stood at 3.53.
With CTACGSVLEDNIIVSEVQFVESSG, for the setting “parent: IOH11305_5, c terminus: a fixed tail appended”, the protein stability index was 3.03.
Consider LLEDMRASEAFHWDERGRAAAYSP, for which the protein stability index (parent: IOH11833_9, c terminus: a fixed tail appended) amounted to 1.79.
As to YLDPSVLSGVSCFVMFLCLADYLV [ARL6IP1 WT], the protein stability index (parent: IOH11244_11, c terminus: a fixed tail appended) came out at 2.87.
As to VGAAGSARQELLGDRPRWQRLLGE, the protein stability index (parent: IOH11833_41, c terminus: a fixed tail appended) is 3.32.
IAQYALLGYFIRSWRTLAILVNLQ [SLC22A15 WT]: the protein stability index (parent: IOH10897_34, c terminus: a fixed tail appended) stood at 2.63.
With FAPQTGARPSETFARFCKSQESAL [C19orf51 WT], under “parent: IOH10770_74, c terminus: a fixed tail appended”, the protein stability index amounted to 2.22.
Consider TLARCAKDILGFAVMFFIVFFAYA, for which the protein stability index (parent: IOH11095_79, c terminus: a fixed tail appended) was determined as 2.95.
For SEVEELNMSLTALREKLLEAEQSL, the protein stability index (parent: IOH11065_62, c terminus: a fixed tail appended) turned out to be 2.99.
Consider QLDWDELETNQQHFHALCHSLLVS [C2orf65 WT], for which the protein stability index (parent: IOH10869_57, c terminus: a fixed tail appended) was 2.16.
YEHHYHTLHGNVCSFCKRAFPSGH: under “parent: IOH11805_17, c terminus: a fixed tail appended”, the protein stability index was found to be 2.07.
On to PTPAKRRSSALWSEMLDITMKESL, for which the protein stability index (parent: IOH11256_16, c terminus: a fixed tail appended) came out at 2.21.
Turning to AEVSWEPGRREGCDICAGKAGCPI [RPS21 WT], the protein stability index (parent: IOH11779_7, c terminus: a fixed tail appended) is 3.06.
With EPLPVERDPAAGAAPFRFVARPVR, the protein stability index (parent: IOH11805_4, c terminus: a fixed tail appended) came to 2.21.
Regarding IIKKVAEVALDKGCSQFRLAVLDW, for the setting “parent: IOH12374_19, c terminus: a fixed tail appended”, the protein stability index was found to be 2.44.
As to HLYPADFRFDKPKKSRSPASAEAP, the protein stability index (parent: IOH11805_29, c terminus: a fixed tail appended) worked out at 2.92.
Take FAPLLDEQYDLATKRVRQLLDLDP [GOLPH3 WT]: the protein stability index (parent: IOH12568_43, c terminus: a fixed tail appended) amounted to 2.12.
As for LTKASLKPRGCSKPPWRPPGGKL, under “parent: IOH11209_36, c terminus: native”, the protein stability index is 2.04.
Turning to GYGIYYFIYSTWKGRTIYLEDIYV, the protein stability index (parent: IOH12374_13, c terminus: a fixed tail appended) came to 3.
Consider FSHDGLHVASLADDKMVRFWRIDE, for which, for the setting “parent: IOH12660_54, c terminus: a fixed tail appended”, the protein stability index amounted to 1.85.
On to LIVVTQSHLVIHNLFEGMIWFIVP, for which the protein stability index (parent: IOH10978_35, c terminus: a fixed tail appended) amounted to 2.99.
As for FHEVGTEMIITKAGRRMFPSYKVK, the protein stability index (parent: IOH11603_12, c terminus: a fixed tail appended) worked out at 2.15.
Regarding YSPRRSRGSPRYSPRHSRSRSRT, the protein stability index (parent: IOH11039_42, c terminus: native) came to 3.93.
As for DLKDDGNMMKVLRGHQNWVYSCAF, the protein stability index (parent: IOH12660_34, c terminus: a fixed tail appended) stood at 2.
Consider IHSIALSTFASLIGPFGGFFASGF, for which the protein stability index (parent: IOH10978_57, c terminus: a fixed tail appended) was 3.13.

Source of the values: the supplement of paper PMC10567573.
